Literature values as cited in patent US7449180B2, “Macroscopic scaffold containing amphiphilic peptides encapsulating cells” (priority 2001, dated 2008).

Parameters: key: β denotes beta-sheet; α denote alpha-helix; r.c. denotes random coil
Settings: secondary structure of the peptide

Substance | Structure
n-LELELKLKLELELKLK-c [ELK16-II] | β
n-AEAKAEAKAEAKAEAK-c [EAKA16-I] | β
n-KADAKADA-c [KADA8-I] | r.c.
n-KAKAKAKAEAEAEAEA-c [KAE16-IV] | β
n-AEAEAHAHAEAEAHAH-c [EAH16-II] | β
n-AEAEAKAKAEAEAKAK-c [EAK16-II] | β
n-AEAEAEAEAKAKAKAK-c [EAK16-IV] | β
n-RADARGDARADARGDA-c [RGDA16-I] | r.c.
n-AEAKAEAK-c [EAKA8-I] | r.c.
n-VEVEVEVEVEVEVEVEVEVE-c [VE20*] | β
n-RARADADARARADADA-c [RAD16-II] | β
n-AEAEAEAEAKAK-c [EAK12] | α/β
n-AEAEAHAH-c [EAH8-II] | r.c.
n-(ADADADADARARARAR)-c [DAR32-IV] | α/β
n-RADARADARADARADA-c [RADA16-I] | β
n-FEFEFKFKFEFEFKFK-c [EFK16-II] | β
n-RAEARAEA-c [RAEA8-I] | r.c.
n-HEHEHKHK-c [EHK8-I] | r.c.
n-LELELKLK-c [ELK8-II] | r.c.
n-FEFKFEFK-c [EFK8-II] | β
n-KADAKADAKADAKADA-c [KADA16-I] | β
n-RARADADA-c [RAD8-II] | r.c.
n-RAEARAEARAEARAEA-c [RAEA16-I] | β
n-RADARADA-c [RADA8-I] | r.c.
n-AEAEAKAK-c [EAK8-II] | r.c.
n-RFRFRFRFRFRFRFRFRFRF-c [RF20*] | β
n-RARARARADADADADA-c [RAD16-IV] | β
n-HEHEHKHKHEHEHKHK-c [EHK16] | r.c.
